# Key:
# [1] = molecular target: TGFβ1 (R&D systems) (UniProt P01137); experiment: cell-based or functional assay
# [2] = molecular target: IL2Rβ and common γ chain expressed on 32Dβ cells; experiment: cell-based or functional assay
# Chain of UniProt P01137 (P01137 279-390 limits assumed): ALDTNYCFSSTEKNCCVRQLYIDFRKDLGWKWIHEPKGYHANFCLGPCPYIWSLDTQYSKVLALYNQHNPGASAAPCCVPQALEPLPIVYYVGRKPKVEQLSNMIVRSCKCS
IC50 for TGFβ1 activity in HEK-Blue TGFβ cells (QUANTI-Blue OD at 620-655 nM) [1] [nM],"EC50 of 32Dβ cell proliferation (WST1, absorbance at 450 nM) [2] [nM]",Substance
0.461,–,TGFR-Fc (R&D Systems) (Fc fusion)
–,0.0106,recombinant IL-15 (from UniProt P40933 49-162) (ligand)
